Laboratory results reported in the DeepSol protein solubility set.

Assay: soluble on expression in E. coli; label from the status in PepcDB or PDB records

Sequence | soluble on expression in E. coli
MAHHHHHHMAASANGSTKGSETDLPIGKDGTTLHLKCKSDELADRIIFVGDPGRVDVISGYFDKDSIRASRDHREIRFATGTYKGTPVTVISTGMGVDNIEIVLNEIHALKEYDMERGQWRHRKGDADAPSAGPFFDPSTMKIIRLGTCGSPAESVPPLALAVTRHAIGMDNTSLYYSAGTRETSKDQQEIRRIVREQTGLRAIDIYTSMAHPNITKSICAACDAHNAATGSEADKQQYVIGTTATASGFYGCQGRRVGRFMKHLTVPNMVEELGSLKFNLSNGVEVVTNIEMETSAICYLSDMLGYQAGAACVVVSKRVGEKKMFLGDQLDAAMKRCIKIILEALVSA | soluble
MAHHHHHHMADVSADSDAQVELERLNDVIDKYTCQVEHIDNLLQELEEENNSDSVSRQIAEYQSALESHPENIPAEDALEVITRLENTLKIVQRRNHLLEKENGTQNRLLEERSNVLLNATKTFDHIVDVTGWHDKFLFDAEDLRSKVADIREMSNIEAVVQKELRVAQGIIKKKEAALRQLEELVEQGKEQEAVLNNVYNDIRVKERDCSEVEMQLVRLRKSVAKTDEALAVFDLHNQNASLAYMESDRDYLRDSVAEMKSTTRRQDNVIKAQLTRQQQLQTRLDVIMKSLREMKLDKKYERNIPKSALVPSASREEPEDVSKILPESECIPVPTYRLLHKNNEMLRVIVMRKNMLVLEKNAVIEALEAGLAKYGSALITTYKEQQDLRQNKDMELIELMDDLQQQHSNYLEKLEELRLQNAALKKKMYRSTRQHAPLKGTRPMR | not soluble
MAHHHHHHMAERKVLNKYIPPDFDPDKLMESKKLLKKIEKRKNRNQNKTKKKLMNIRMMYPFTLKCNKCKTFTYVGTKFNSRVEKLKDETYLNIPIWKFYGKCQECKNEIIFKTDPKNGDYLLIAGGTRTYDAHKEQELADDYYRNSNVKDEDKIKNTEKQSYNAMLELKMNEQLEELQNMNKRHLDKFSSINKALNRLYEKSELENKENNFFMNNLDSEDEKAFFSLLNKSRSSKDHIGDNLNKYNPSNNNWVNKNIEKDNIIIEEVELDDNKNNNDEVNEYISEGEGEHSDGNNINEVNESFSDLLLKKKKNRYEKENTVKIKQGNIDTEDKPKDNQQDKTNNISFKNTISNNSSSFSNIIHKPMFNKINKETNFNFVIKKKENFQSLLSEYNSDNSNESDN | not soluble
MAHHHHHHMAFTDAVAGKTSLPPPVAIIVGHNIDASAMPLTYERNRLVIDMLQHYACPVFSHKKSGDAMNTVSSDVFEWVLEPLPVVGVEDMTAFHDRAYLNYLSIREALSEVDERASTVKRSRAEGIQPPVSRRSSAQNQPPLRVLPDLVPIPTDEEYGLVNENMPFVGMWRTIQATVSGTLLAARLLAQPGRFAAIHWFGGRHHAKQSTAGGFCFANDVVLGVLELKKLLSSDKKGILVVDVDAHHGDGTQSAFLHDNSVLTLSMHAHGVGIFPGSGGIEEIGAGLGRGFTMNVPLPEGATDILAVTLMYRSIHFAFKKLGEGLAAIVIVCGSDALSGDPLGALNLTVGGMQSIIRLLLKEAARRSLKVLLLGGGGYVDTSCARLAGVVTKDVLSCAAAMRLGKTEYFGDSANLGDNLGVAVPEGCEYFTRYGPSFLMHGLPPARVSKLYRLPYGSPLFMRMQRAATKEALRRRRNQEQDEEEEEEEEEEEEEEEEEEEEEEEEEVEEEEGEGEEEA | not soluble
MAHHHHHHMAILYNRITGLKDSVYGEGLQCRILGLDEIKVFNIRIRPRVLKTMTGTKDLQMVNISLRVLFRPQTDRLPQIYREFGMDYDERILPSISNEILKAVVAEYKAEELIQKRDVVSARIYQLMQSKVSQFGLVLEDLSLVDIQFGKEFMVAVEQKQVAQQEAERFRYVVLENEQKRRAAVVRAEGEAESARLISEAIQRSGGGLLELRRIEAAVDIASKLIPMRNVTFLPGGSNMLLHMKSHQASEQAH | not soluble
MAHHHHHHMAKRKYMSKVDGKINVGEKHQAKIPDLVTDENEKTNVEETQPVENVNNVNDDVRKNKKAKTEQVEETTNNAAEEQVQQEEPVETAPAHEEPAHGEEAQGEEVQGEEAQGEEVQGEEVQGEEAHEEPANDEPANDEPANDEPANEEPANEEPANEEPANEEPANEEPANEEPANEEPANE | not soluble
MAHHHHHHMALTQSSGEPLRSMQGGVGGVSYADGAGQAPEHINRASATPVLTEEAVQSSIETFEDAACVREEAVRSYAEFHNNVESLHATMHTQLRPVWRTAMQLRPEILSDVRDEWCLRRRDNIPDGIPIPAAAAQHIALQETILSEVEDMLQVLRNTSVRFAAHFLSDEEKISMGANPAYLRAPDIDKEVVVSRSQSTSTSPQRALPASVMSVSSSAGAVASAPIKPSASSAATAAVHTPREGHSRHHQGSYVQHHHHHSDDEAGLVSSSSNRHVCSGKSSCGSRSAGEDPLLEELRKQYQLRIRELKAQSEAGASRRSEHGASQSAAAPPPRRGNRARVAASRSLSLPSWASSASASVLTSSSSTVSRR | soluble
MAHHHHHHMALYIIGLGLGDERDVSVKGKELIEMSDVVYLESYTSVLFVSKNTLEEFYKKNIKEVDRNLAEENCEEILKEAINKKVSFLVVGDPLCATTHHDIILRAKKKNINVQVIHNASVMSAIGESGMQLYNFGQTVSIPYFEGNYKPTSFYDKIKVNLDNNFHTLCLLDIKVKERTIENMMKNKNIYEPSRFMTVNEAIEQLLYCEEVLKKNVITDNTRGIAIVRIGSDSQQIVSGSLLALKSVSYNDPLHSLIICAPTLHDVEREYFEMYQHRC | soluble
MAHHHHHHMAPMSSSGIRGLSLRSVRETVHCATTQTTSAPPPPANCQQHQLLNTTEDKCNAIFAEVELLSKWLQHAVESRAHVEREAYALLQQADVKIQHLEDTVRQKEMELLYMRGAMESLRTRVEFYECRERRIEGDDDDANFPLRREADFKGAAVRKVVIMGENNTNDSYCSNRMGRGNGVMSPADFTVDSTEQLNAGKCVDLGTTATTCNSNGVDNASVSSPAETGVGGRSRVGHSALSWVRYLLERCVSNSGKDGASEGAASMKKKGEGNDQLADALTMLTTLQCQYADPNGDLVMMNSLCTKFSNSIVAVAEELNTALQIPLKRASNTTDSLQISQAAKVVEHPESAAEALPSSNQEPIMQCRKSVVEENLQLLQSLMAVESSSREAWSTLQKY | not soluble
MAHHHHHHMASTGNGGDSKAAASSLSPQKAGMVAPLTSAPPLTASTTSPSRLNSMRTANASASSKNNAPTGPSKKGGTAVKPSPEVGGKAAAGSSEPEPRASVNIDRQSKPNANSVNASNVADSTNAPSGKRPDHGRRGRRQECSSWFDAEKPAKADRPADKELNQNVQIVQDDIPDAEQAHREQAERAQRQKEKLARHISESPTGFQATLPRLNELDVTNSWDKLLRMMRSEFDMSCLTSCLARELDEDVAWNPEMLLVQLTSDMLDAAELQKDGGEAYVPVDASDIGQMTGGEVARRRKEKRSTTTAGGAAPAAGAAGGTEREPEKGSEKPAAASPTPAFQAAASKALRKQTTTDPAAAAPSSKKARDTDNAASTSTANSSSTRKRSAAGSRSGEASGGGGNNTNASSSTAKGDSADDTKSSKSTSLKAQVSKLFSK | not soluble
MAHHHHHHMATAADYVGKNCPYCGAIDSIETDEARGEAACVNCATVVAMGLEENVATRFEKDATYADVDRGGNVGWDPENGGAIGRATARNAGLTREEAAAAAAGLLRHPNAAASVTSAGPFGDTAKYAKTRLHPRMSAQLEVFFRLSRRHDEAILRDAIALAKHFVGFRRERGMRVEHQTEVAAASVMLAAEHLGQPIPLSEMRVLDGTLKDVESRRQEILDATNLGEEMAQMTKQYAPNLIHYYVRLLQLPLICYEMPCLALFRAIRQCESKPDPGASELAVFVEAEKVVMAVLLARTESRLQWPNKPPPPADPSAEPSRAILYSSFASRAHLQPARVEKLMRVAERSVPLIQPEFERLMQTPEFAVAAVHTMGEAVVSMTAKTEDTKSYAPVKSDPIPTSAPSAPNIARGNRKRSRSRSTTPQVPPSSASQER | not soluble
MAHHHHHHMATTSSPAASETAVRTVWFDAIDATAAMISTDPLQPAAEYTADSYLPPLSLAGDQADFFAQLRELDRGFIEAAPSLFLPQMTLEEACHAKPSFYQTFLGEREITETTFQPLLLKQRDEAEQEADGSAMNGRHGARRRRQEAPVLPRGTAPLYGGFLGQEAMSPSTAVQRKPDFMPIILVPSAATAPLQLMNIKQFLEHGAYVDPATLYVDRETGVVNIRDSKPRSVIVKPGSFHDPHKYHVAFRQFRVVDDQDEVDDWSHVCGCIVEGKLWQLKGWYPHEQPQSRDPSRLFSRIRAFLAYFEEDKVPPQCREWNVQSLALTRNLLKDQVHIALASKFWEQLYTFLDEHPMFSRYTIPLTDERL | soluble
MAHHHHHHMAVASKGRIADVNQEELTKIGPKIDDVLSICLASFDSLRDMAFKFQYEQAAEKAAYQSGETKPDPMTQLMHVLQRMVDLTLGTAKAVYDQTLLEWRRRKGEGDADSPASQLASSQSMTSPEVLRNSSVEDFAAGSVAWIERGSHLSLLSLEVLSSVLLAHHYLRRDLQKYMLDVNVLDYLEKVFSMERDHELCYFPEGFKTECMRLIANLTHNNVDVNAALVERDTFLFNILSATQIDEENPGMVEWAEFALRNICESSAAAREKIRKLAPQGVTDQSREILAGRCSYSFSSTGKVQLHTQKPPLH | soluble
MAHHHHHHMCNGKFAFLFSDFGNHVIEESYYKVNEGQRKGETGANKAAMQIQYCKLSHFLKVPFENFDKKTNKIIYPMFALILFEQNKQLNKNDKSIDEQEFHTFCDQFSLSKWKESLVEISKTYRVGFSPTCSIMGGVTSQEIRKFVSKQHESIPNFCVFDMNQNVVCTSMIS | not soluble
MAHHHHHHMDHRRSGLVLSLRYRCDGPVGTVETRRLTHVGTRSRARSAELARVRRALLVLLLPQRMKGLGQRLGDIRPREREGPGCRAQPWRASVVPRPARASLPPPKASGCFYAVHHHDKSSRLSVTATTAHDSSMRAPPSSVLRWTFTCVSSPRSTTAAAQTYHRPLHHPSQGFTTPRGRGRSAIHTHTHTHTHTHTHTHTHTHTHTRLSFNVRGPCEEHPHAPAACCIPLFLCCDAPAVSAAAAMSLQVNLLNNTFANPFMNAAGVMCTTTEELVAMTESASGSLVSKSCTPALREGNPTPRYQALPLGSINSMGLPNNGFDFYLAYAAEQHDYGKKPLFLSMSGLSMRENVEMCKRLAAVATEKGVILELNLSCPNVPGKPQVAYDFDAMRQCLTAVSEVYPHSFGVKMPPYFDFAHFDAAAEILNEFPKVQFITCINSIGNGLVIDAETESVVIKPKQGFGGLGGRYVLPTALANINAFYRRCPGKLIFGCGGVYTGEDAFLHVLAGASMVQVGTALQEEGPSIFERLTSELLGVMAKKRYQTLDEFRGKVRTLDGTAESTR | not soluble
MAHHHHHHMDIERLAKNATEITHQSLMLKNIQKEQNNYCKQCGYIYNYDDYMYMYMKRFNLSKWRETSNCLSGRNPYGPFSGGMESSQFDNENCIRCIYCGAIIDTIEMYDHWNGKESYIELNSYREKFIFDKNKKSYWKNKITSLEKNVSLFKEDQNQAYNITYEKCTDCGNDFLHFINIQTRSADEGSTIIYFCPNCKKQTTVNN | not soluble
MAHHHHHHMDKIKSWLGFNKKIVFTENKFLLRNVNDQESLQAENVRAEDYPIPEKYLEDPDKIPKYYVFQSNMVTDEDLQPGMLRQLEVDKRLTLPTRTHISFLVTATDVIHSWSIPSLGIKADAIPGRLHKITTFILREGVYYGQCSEMCGTLHGFMPIVVEAVSPEAYAAHAKKYYKE | not soluble
MAHHHHHHMDNLFYYMIIQNDRIQPIIVRQPQTVIIHSQPKLPITLDLPPQNIILKNEDPQPIIVRQSNPNIIIEKSQNDFYNHPNFHIGLHDKVNSMSDINNTNIKEQPIKDNMIEDMQNINNADTQFYYNNQNVINENNVLPTHYSYLNNGVFNKEHNYDPYNFTLYSNK | not soluble
